In JP2023014062A (dated 2023):

Columns and labels:
[1] = target: T1, B.1.1.7変異株(アルファ株又は英国株)のSタンパク質のRBDタンパク質 (SARS-CoV-2 B.1.1.7変異株, UniProt P0DTC2 322-536); assay: ELISA, RBD coated at 2 μg/ml, Expi293 culture supernatant, HRP anti-human IgG
T1 construct: range 322-536

[2] = target: T2, B.1.351変異株(ベータ株又は南ア株)のSタンパク質のRBDタンパク質 (SARS-CoV-2 B.1.351変異株, UniProt P0DTC2 322-536); assay: as above
T2 construct: range 322-536

B1: 抗体NCV2SG53 (antibody, V domains shown)
VH: QVQMVESGGGLVRPGGSLRLSCAASGFTFSDYYMSWIRQAPGKGLEWISYISSSGSSMNYADSVKGRFTISRDNAKNSLFLQMNSLRAEDTAVYYCAREFDLTKIIMVPPYWGQGTLVTVSS
VL: AIQLTQSPSSLSASVGDRVTITCRASQGISSYLAWYQQKPGKAPKVLIYAASTLQSGVPSRFSGSGSGTDFTLTISSLQPEDFATYYCQQLKSYPLTFGGGTKVEIT
binding result [1]: binds | binding result [2]: binds
